Starred links: 1 amine or outer side, 2 acyl side, 3 side chain; linkers in the order of their positions; H or OH if unused. Positions of bridges follow the written chain, without caps; N, C: chain ends. Groups on a side chain read outwards from the residue. *: point of attachment. PEG12 = NCCOCCOCCOCCOCCOCCOCCOCCOCCOCCOCCOCCOCCC(=O)O; Biotin = O=C1N[C@H]2[C@H](CS[C@H]2CCCCC(=O)*)N1; TBMB = c1c(C[*:1])cc(C[*:3])cc1C[*:2]
B1: Peptide 1 (compound 1), TBMB-cyclized Ac-CDDECPDYVCGGSGK[PEG12-biotin]-NH2 (peptide)
peptide: Ac-CDDECPDYVCGGSGK([PEG12-Biotin])-NH2
modifications: linker 1-5-10 via TBMB
SMILES: CC(=O)N[C@H]1CSCc2cc3cc(c2)CSC[C@H](NC(=O)[C@H](CCC(=O)O)NC(=O)[C@H](CC(=O)O)NC(=O)[C@H](CC(=O)O)NC1=O)C(=O)N1CCC[C@H]1C(=O)N[C@@H](CC(=O)O)C(=O)N[C@@H](Cc1ccc(O)cc1)C(=O)N[C@@H](C(C)C)C(=O)N[C@H](C(=O)NCC(=O)NCC(=O)N[C@@H](CO)C(=O)NCC(=O)N[C@@H](CCCCNC(=O)CCOCCOCCOCCOCCOCCOCCOCCOCCOCCOCCOCCOCCNC(=O)CCCC[C@@H]1SC[C@@H]2NC(=O)N[C@@H]21)C(N)=O)CSC3
notes: bicyclic peptide selected by phage display against PSMA, with the GGSG spacer and an added lysine; also called the peptide; bicyclic peptide; source: synthetic peptide (SPPS, TBMB cyclization, RP HPLC); not shown: biotin (through a PEG12 linker on the C-terminal lysine), C-terminal, kept
B2: iBody 1, poly(HPMA-co-Ma-β-Ala-compound 2-co-Ma-β-Ala-ATTO488-co-Ma-β-Ala-NH-ED-biotin) (designed binder)
peptide: CDDECPDYVCGGSGK
modifications: not fully specified; N-terminus acetylated; C-terminal amide; three cysteines cyclized with TBMB; lysine side chain carries (CO)CH2CH2(OCH2CH2)5-NH2 (compound 2), through which the peptide is joined to the HPMA copolymer backbone; the polymer also carries ATTO488 (3.0× per polymer) and biotin (11.6× per polymer)
notes: bicyclic Peptide 1 as compound 2, 9.8 copies per polymer (20.4 wt%); Not a polypeptide as a whole: about 9.8 copies of the peptide on a synthetic HPMA copolymer (Mn = 88,100 g/mol, Mw = 104,000 g/mol); also called the iBody; copies: 9.8

Target: T1, recombinant extracellular part of PSMA (construct not named; ELISA and SPR) (human, UniProt Q04609 44-750)
T1 construct: prostate-specific membrane antigen (PSMA), recombinant extracellular part; also called recombinant extracellular domain of PSMA; truncated version of the target enzyme
T1 sequence (Q04609 44-750): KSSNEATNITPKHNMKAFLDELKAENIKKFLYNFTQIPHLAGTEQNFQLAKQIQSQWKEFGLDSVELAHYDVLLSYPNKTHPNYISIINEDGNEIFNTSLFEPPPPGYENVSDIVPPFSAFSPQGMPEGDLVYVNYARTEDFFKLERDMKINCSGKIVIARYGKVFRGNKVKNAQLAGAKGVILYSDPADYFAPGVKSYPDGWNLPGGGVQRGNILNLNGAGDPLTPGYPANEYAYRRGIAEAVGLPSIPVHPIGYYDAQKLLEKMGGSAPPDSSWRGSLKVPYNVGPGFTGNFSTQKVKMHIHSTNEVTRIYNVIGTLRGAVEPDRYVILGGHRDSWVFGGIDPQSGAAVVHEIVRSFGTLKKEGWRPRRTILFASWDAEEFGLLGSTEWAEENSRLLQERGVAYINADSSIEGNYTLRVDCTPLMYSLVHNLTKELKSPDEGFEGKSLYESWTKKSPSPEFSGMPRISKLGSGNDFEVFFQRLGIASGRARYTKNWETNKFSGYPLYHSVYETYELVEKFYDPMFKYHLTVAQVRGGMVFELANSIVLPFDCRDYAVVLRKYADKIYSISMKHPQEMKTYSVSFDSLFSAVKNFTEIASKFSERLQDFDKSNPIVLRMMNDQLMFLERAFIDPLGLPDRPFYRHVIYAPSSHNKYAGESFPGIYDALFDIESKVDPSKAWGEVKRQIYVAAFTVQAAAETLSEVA
Details: both partners purified

Row | Binder | EC50 [nM]
1 | B1 | > 5000
2 | B2 | 2

Source: article PMC8600089, “The development of a high-affinity conformation-sensitive antibody mimetic using a biocompatible copolymer carrier (iBody)” (The Journal of Biological Chemistry, 2021)
